Data: patent publication US20180244769A1 (Ablynx, published 2018)

Legend:
[1] = biological target: human P2X7 (hP2X7) (human) (UniProt Q99572); assay: flow cytometry on human peripheral blood lymphocytes of a single donor, CD4- cells
rat P2X7 (rP2X7) = biological target: T1, rat P2X7 (rP2X7) (Rattus norvegicus, UniProt Q64663 1-595); assay: flow cytometry, HEK cells co-transfected with GFP and rP2X7, bound antibody detected with Alexa647 anti-mouse IgG; other quadrants: UL 1, LL 7.5, LR 21
T1 sequence: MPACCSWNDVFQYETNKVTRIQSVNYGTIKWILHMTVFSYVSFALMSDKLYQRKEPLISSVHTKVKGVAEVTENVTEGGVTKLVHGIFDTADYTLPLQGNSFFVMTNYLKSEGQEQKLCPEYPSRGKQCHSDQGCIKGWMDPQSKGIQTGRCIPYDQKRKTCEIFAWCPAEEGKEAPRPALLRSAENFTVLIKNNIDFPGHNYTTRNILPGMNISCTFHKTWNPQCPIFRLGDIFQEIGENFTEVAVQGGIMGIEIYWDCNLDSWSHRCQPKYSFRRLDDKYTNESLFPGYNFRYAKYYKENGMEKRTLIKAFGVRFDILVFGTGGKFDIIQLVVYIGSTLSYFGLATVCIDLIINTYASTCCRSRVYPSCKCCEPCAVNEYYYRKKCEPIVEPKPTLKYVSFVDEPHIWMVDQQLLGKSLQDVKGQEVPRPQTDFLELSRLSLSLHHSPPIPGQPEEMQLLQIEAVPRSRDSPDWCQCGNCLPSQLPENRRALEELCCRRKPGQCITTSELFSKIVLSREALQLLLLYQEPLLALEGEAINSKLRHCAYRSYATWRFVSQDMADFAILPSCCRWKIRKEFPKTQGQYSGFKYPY

mouse P2X7 (mP2X7) = biological target: T2, mouse P2X7 (mP2X7) (mus musculus, UniProt Q9Z1M0 1-595); assay: flow cytometry, HEK cells co-transfected with GFP and mP2X7, bound antibody detected with Alexa647 anti-mouse IgG; other quadrants: UL 64, LL 26, LR 5.5
T2 construct: Also used here for endogenous P2X7 on Yac-1 cells, primary mouse lymphocytes and macrophages
T2 chain: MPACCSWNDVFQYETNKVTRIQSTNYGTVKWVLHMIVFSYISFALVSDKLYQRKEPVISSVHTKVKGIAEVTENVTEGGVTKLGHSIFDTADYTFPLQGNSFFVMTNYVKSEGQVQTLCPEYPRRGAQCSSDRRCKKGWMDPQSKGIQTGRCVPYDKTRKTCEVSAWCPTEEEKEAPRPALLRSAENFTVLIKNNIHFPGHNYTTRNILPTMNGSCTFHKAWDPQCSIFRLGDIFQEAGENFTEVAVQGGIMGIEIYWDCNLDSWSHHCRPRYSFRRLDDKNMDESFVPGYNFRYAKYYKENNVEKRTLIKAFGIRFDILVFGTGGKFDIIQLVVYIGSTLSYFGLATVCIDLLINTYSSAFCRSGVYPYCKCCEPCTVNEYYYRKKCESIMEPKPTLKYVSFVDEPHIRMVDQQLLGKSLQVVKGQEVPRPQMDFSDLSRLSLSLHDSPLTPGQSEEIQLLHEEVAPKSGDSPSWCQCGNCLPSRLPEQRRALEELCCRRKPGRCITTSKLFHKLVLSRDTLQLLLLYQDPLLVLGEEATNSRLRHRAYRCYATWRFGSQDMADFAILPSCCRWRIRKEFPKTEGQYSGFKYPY

[2] = biological target: human P2X7 (hP2X7) (human) (UniProt Q99572); assay: flow cytometry of whole blood of one donor, gate on lymphocytes, Alexa647 conjugate with anti-CD4; unblocked = pre-incubated with control 1067-Fc; lower quadrants 32 and 33
[3] = biological target: human P2X7 (hP2X7) (human) (UniProt Q99572); assay: cell-based or functional assay
[4] = biological target: human P2X7 (hP2X7) (human) (UniProt Q99572); assay: flow cytometry on human peripheral blood lymphocytes of a single donor, CD4+ cells
[5] = biological target: human P2X7 (hP2X7) (human) (UniProt Q99572); assay: flow cytometry of whole blood of one donor, gate on lymphocytes, Alexa647 conjugate with anti-CD4; blocked = pre-incubated with excess unlabelled Nb-Fc (legend: 3 ug each of 1c113-Fc and 3c23-Fc); lower quadrants 43 and 55
[6] = biological target: human P2X7 (hP2X7) (human) (UniProt Q99572); assay: flow cytometry, HEK cells co-transfected with GFP and hP2X7, bound antibody detected with Alexa647 anti-mouse IgG; other quadrants: UL 0.5, LL 9, LR 19

human P2X7 (hP2X7) (human), sequence (Q99572 whole entry): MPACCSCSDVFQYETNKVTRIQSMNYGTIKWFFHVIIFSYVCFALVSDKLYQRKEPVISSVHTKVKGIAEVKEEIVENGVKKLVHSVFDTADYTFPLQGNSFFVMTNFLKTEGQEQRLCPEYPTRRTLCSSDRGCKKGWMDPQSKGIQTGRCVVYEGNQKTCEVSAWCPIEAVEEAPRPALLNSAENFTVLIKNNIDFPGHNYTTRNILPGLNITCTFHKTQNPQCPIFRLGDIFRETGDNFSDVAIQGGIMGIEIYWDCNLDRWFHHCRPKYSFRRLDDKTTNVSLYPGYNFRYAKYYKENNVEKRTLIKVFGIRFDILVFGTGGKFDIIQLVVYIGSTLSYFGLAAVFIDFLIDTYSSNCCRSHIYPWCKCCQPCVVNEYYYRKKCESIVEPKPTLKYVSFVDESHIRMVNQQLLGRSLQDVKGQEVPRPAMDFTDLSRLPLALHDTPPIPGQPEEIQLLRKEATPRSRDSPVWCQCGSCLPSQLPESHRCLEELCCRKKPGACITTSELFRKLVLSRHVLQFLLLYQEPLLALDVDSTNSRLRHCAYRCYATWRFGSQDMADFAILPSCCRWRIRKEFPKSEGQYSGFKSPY

- MFI [1]: 10
- % of cells in the GFP+ / anti-mIgG A647+ quadrant (upper right) (rat P2X7 (rP2X7)): 70%
- % of cells in the GFP+ / anti-mIgG A647+ quadrant (upper right) (mouse P2X7 (mP2X7)): 4.8%
- % of lymphocytes in the CD4+ / AF647+ quadrant (upper right), unblocked [2]: 22%
- % of lymphocytes in the CD4- / AF647+ quadrant (upper left), unblocked [2]: 13%
- IC50 [nM], blockade of L-selectin (CD62L) shedding in transfected HEK cells, 4 mM ATP [3]: > 19 nM
- IC50 [ng/ml], blockade of L-selectin (CD62L) shedding in transfected HEK cells, 4 mM ATP [3]: > 2800 ng/mL
- MFI [4]: 11
- % of lymphocytes in the CD4+ / AF647+ quadrant (upper right), blocked [5]: 0.6%
- % of lymphocytes in the CD4- / AF647+ quadrant (upper left), blocked [5]: 0.9%
- % of cells in the GFP+ / anti-mIgG A647+ quadrant (upper right) [6]: 72%
Substance: mAb L4 (anti-hP2X7 mouse monoclonal antibody)
